Assay results as given in patent publication US20140179896A1 (published 2014).

Legend:
[1] = target: T1, human vascular endothelial growth factor receptor-2 Fc chimera (KDR-Fc) (human, UniProt P35968 20-764); assay: binding to 1 nM KDR-Fc, % of input; radioactive equilibrium binding (assay not given)
T1 construct: range 1-764; also called human VEGFR-2; hKDR; not shown: human IgG1 Fc
Protocol: (§1) To prepare ³⁵S-labeled binding proteins for analysis, mRNA was prepared as described above for RNA-protein fusion production but the linker ligation step was omitted. The mRNA was expressed using rabbit reticulocyte lysate translation kit (Ambion) in the presence of ³⁵S-labeled Met at 30° C. for 1 hour. Expressed protein was purified on M2-agarose Flag beads (Sigma) as described above. This procedure produced the encoded protein without the nucleic acid tail. In a direct binding assay, VEGF-R2-Fc fusions in concentrations ranging from 0 to 200 nM were added to a constant concentration of the purified protein (0.2 or 0.5 nM) and incubated at 30° C. for 1 hour in buffer B. The receptor-binder complexes were captured using Protein A magnetic beads for another 10 minutes at room temperature using a Kingfisher™ The beads were washed with six reaction volumes of buffer B. The protein was eluted from the beads with 100 μL of 0.1 M KOH. […] of the reaction mixture and elution were dried onto a LumaPlate-96 (Packard) and the amount of ³⁵S on the plate was measured using a TopCount NXT instrument (Packard). The amount of fibronectin-based scaffold protein bound to the target was estimated as a percent of radioactivity eluted from Protein A magnetic beads compare to radioactivity in the reaction mixture. Nonspecific binding of fibronectin-based scaffold proteins to the beads was determined by measuring binding in the absence of KDR-Fc and represented less than 1-2% of the input. Specific binding was obtained through subtraction of nonspecific binding from total binding. Data was analyzed using the GraphPad Prizm software (GraphPad Software, Inc, San Diego, Calif.), fitted using a one site, non-linear binding equation.
T1 sequence (P35968 20-764 limits assumed, change not shown, form in doubt): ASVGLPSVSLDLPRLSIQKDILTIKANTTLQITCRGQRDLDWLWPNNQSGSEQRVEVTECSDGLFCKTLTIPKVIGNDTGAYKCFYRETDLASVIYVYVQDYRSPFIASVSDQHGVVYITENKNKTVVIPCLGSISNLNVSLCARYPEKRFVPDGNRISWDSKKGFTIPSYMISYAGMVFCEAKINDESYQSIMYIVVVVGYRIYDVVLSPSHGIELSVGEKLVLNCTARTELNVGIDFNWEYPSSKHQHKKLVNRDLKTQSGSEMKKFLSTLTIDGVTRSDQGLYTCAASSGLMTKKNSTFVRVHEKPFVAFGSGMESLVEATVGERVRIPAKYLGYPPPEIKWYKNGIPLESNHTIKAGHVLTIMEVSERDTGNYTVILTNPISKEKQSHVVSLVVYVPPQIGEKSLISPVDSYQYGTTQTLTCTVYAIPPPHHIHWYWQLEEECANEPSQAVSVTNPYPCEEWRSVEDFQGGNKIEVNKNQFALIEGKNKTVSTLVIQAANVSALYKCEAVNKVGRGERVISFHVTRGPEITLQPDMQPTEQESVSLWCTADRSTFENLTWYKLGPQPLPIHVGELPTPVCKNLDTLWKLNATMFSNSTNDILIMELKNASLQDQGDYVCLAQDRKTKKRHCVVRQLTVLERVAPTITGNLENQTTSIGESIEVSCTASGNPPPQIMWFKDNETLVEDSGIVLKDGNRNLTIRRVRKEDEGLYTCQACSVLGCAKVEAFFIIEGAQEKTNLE

[2] = target: T2, human vascular endothelial growth factor receptor-2 Fc chimera (KDR-Fc) (human, UniProt P35968 20-764); assay: radioactive equilibrium binding, 1 nM KDR-Fc
T2 construct: range 1-764; purchased from R&D Systems; also called hKDR; human VEGF-R2-Fc; not shown: human IgG1 Fc
Outline: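 ³⁵S-Met-labeled binder protein, made by reticulocyte-lysate translation and Flag-purified, held at 0.2 or 0.5 nM with receptor-Fc (0–200 nM) for 1 h at 30° C in buffer B. Complexes captured on Protein A beads, washed, KOH-eluted. Bound signal given as % of input radioactivity minus bead-only background; one-site fit.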
T2 sequence (P35968 20-764 limits assumed, change not shown, form in doubt): as above

[3] = target: T1, human vascular endothelial growth …; assay: radioactive equilibrium binding (assay not given)
Protocol: as §1

Row | Binder | Binding to 1 nM KDR, % [1] | Binding to 1 nM KDR, % [2] | Kd [3]
1 | E10 (designed binder, Del 1-8 10Fn3 clone; Flag tag not included) EVVAATPTSLLISWRHPHFPTRYYRITYGETGGNSPVQEFTVPLQPPTATISGLKPGVDYTITGYAVTEGRNGRELFIPISINYRT | 53% | – | –
2 | 4B7 PR3 (designed binder, tag left out) EVVAATPTSLLISWRHPHFPTRYYRITYGETGGNSPVQEFTVPLQPPTATISGLKPGVDYTITGYAVTVTQNDHELFTPISINYRT | – | 13% | –
3 | K15 (designed binder, Del 1-8 10Fn3 clone; Flag tag of the assay form not included) EVVAATPTSLLISWRHPHFPTRYYRITYGETGGNSPVQEFTVPLQPPTATISGLKPGVDYTITGYAVTEVHHDREIKTPISINYRT | 25% | – | 0.35 nM
4 | 4D2 PR3 (designed binder, tag left out) EVVAATPTSLLISWRHPHFPTRYYRITYGETGGNSPVQEFTVPLQPPTATISGLKPGVDYTITGYAVTVAQNNHELITPISINYRT | – | 8% | –
5 | K3 (designed binder, Del 1-8 10Fn3 clone; Flag tag of the assay form not included) EVVAATPTSLLISWRHPHFPTRYYRITYGETGGNSPVQEFTVPLQPPTATISGLKPGVDYTITGYAVTAGWDDHELFIPISINYRT | 45% | – | 1.15 nM
6 | K9 (designed binder, Del 1-8 10Fn3 clone; Flag tag of the assay form not included) EVVAATPTSLLISWRHPHFPTRYYRITYGETGGNSPVQEFTVPLQPPTATISGLKPGVDYTITGYAVTFGLYGKELLIPISINYRT | 35% | – | 1.8 nM
7 | 4′G8 PR4 (designed binder, tag left out) EVVAATPTSLLISWRHPHFPTRYYRITYGETGGNSPVQEFTVPLQPPTATISGLKPGVDYTITGYAVTVAQNGHELLTPISINYRT | – | 13% | –
8 | 4B6 PR3 (designed binder, tag left out) EVVAATPTSLLISWRHPHFPTRYYRITYGETGGNSPVQEFTVPLQPPTATISGLKPGVDYTITGYAVTVGQNDHELFTPISINYRT | – | 14% | –
9 | K13 (designed binder, Del 1-8 10Fn3 clone; Flag tag of the assay form not included) EVVAATPTSLLISWRHPHFPTRYYRITYGETGGNSPVQEFTVPLQPPTATISGLKPGVDYTITGYAVTLALKGHELLTPISINYRT | 17% | – | 0.58 nM
10 | E12 (designed binder, Del 1-8 10Fn3 clone; Flag tag of the radioactive-assay form not included) EVVAATPTSLLISWRHPHFPTRYYRITYGETGGNSPVQEFTVPLQPPTATISGLKPGVDYTITGYAVTFARDGHEILTPISINYRT | 36% | – | –
11 | 4G4 PR3 (designed binder, tag left out) EVVAATPTSLLISWRHPHFPTRYYRITYGETGGNSPVQEFTVPLQPPTATISGLKPGVDYTITGYAVTLGQNDHELLTPISINYRT | – | 8% | –
12 | K6 (designed binder, Del 1-8 10Fn3 clone; Flag tag of the assay form not included) EVVAATPTSLLISWRHPHFPTRYYRITYGETGGNSPVQEFTVPLQPPTATISGLKPGVDYTITGYAVTDGKDGRVLLTPISINYRT | 27% | – | 0.93 nM
13 | 4C11 PR3 (designed binder, tag left out) EVVAATPTSLLISWRHPHFPTRYYRITYGETGGNSPVQEFTVPLQPPTATISGLKPGVDYTITGYAVTMAQNDRELITPISINYRT | – | 14% | –
14 | E21 (designed binder, Del 1-8 10Fn3 clone; Flag tag of the radioactive-assay form not included) EVVAATPTSLLISWRHPHFPTRYYRITYGETGGNSPVQEFTVPLQPPTATISGLKPGVDYTITGYAVTWGYKDHELLIPISINYRT | 47% | – | –
15 | K5 (designed binder, Del 1-8 10Fn3 clone; Flag tag of the assay form not included) EVVAATPTSLLISWRHPHFPTRYYRITYGETGGNSPVQEFTVPLQPPTATISGLKPGVDYTITGYAVTMGPNDNELLTPISINYRT | 47% | – | 1.54 nM
16 | K10 (designed binder, Del 1-8 10Fn3 clone; Flag tag of the assay form not included) EVVAATPTSLLISWRHPHFPTRYYRITYGETGGNSPVQEFTVPLQPPTATISGLKPGVDYTITGYAVTTGPNDRLLFVPISINYRT | 33% | – | 0.57 nM

Row | Binder | Binding to 1 nM KDR, % [1] | Binding to 1 nM KDR, % [2] | Kd [3]
17 | K14 (designed binder, Del 1-8 10Fn3 clone; Flag tag of the assay form not included) EVVAATPTSLLISWRHPHFPTRYYRITYGETGGNSPVQEFTVPLQPPTATISGLKPGVDYTITGYAVTREENDHELLIPISINYRT | 20% | – | 0.57 nM
18 | K11 (designed binder, Del 1-8 10Fn3 clone; Flag tag of the assay form not included) EVVAATPTSLLISWRHPHFPTRYYRITYGETGGNSPVQEFTVPLQPPTATISGLKPGVDYTITGYAVTQAPNDRVLYTPISINYRT | 24% | – | 1.16 nM
19 | E15 (designed binder, Del 1-8 10Fn3 clone; Flag tag of the radioactive-assay form not included) EVVAATPTSLLISWRHPHFPTRYYRITYGETGGNSPVQEFTVPLQPPTATISGLKPGVDYTITGYAVTLEPNGRYLMVPISINYRT | 52% | – | –
20 | K4 (designed binder, Del 1-8 10Fn3 clone; Flag tag of the assay form not included) EVVAATPTSLLISWRHPHFPTRYYRITYGETGGNSPVQEFTVPLQPPTATISGLKPGVDYTITGYAVTAGYNDQILMTPISINYRT | 38% | – | 1.95 nM
21 | K12 (designed binder, Del 1-8 10Fn3 clone; Flag tag of the assay form not included) EVVAATPTSLLISWRHPHFPTRYYRITYGETGGNSPVQEFTVPLQPPTATISGLKPGVDYTITGYAVTDVYNDHEIKTPISINYRT | 29% | – | 0.62 nM
22 | 4F12 PR3 (designed binder, tag left out) EVVAATPTSLLISWRHPHFPTRYYRITYGETGGNSPVQEFTVPLQPPTATISGLKPGVDYTITGYAVTVTQNGHELITPISINYRT | – | 13% | –
23 | 4C4 PR3 (designed binder, tag left out) EVVAATPTSLLISWRHPHFPTRYYRITYGETGGNSPVQEFTVPLQPPTATISGLKPGVDYTITGYAVTVAQDDHELFTPISINYRT | – | 10% | –
24 | E2 (designed binder, Del 1-8 10Fn3 clone; Flag tag of the radioactive-assay form not included) EVVAATPTSLLISWRHPHFPTRYYRITYGETGGNSPVQEFTVPLQPPTATISGLKPGVDYTITGYAVTDGPNDRLLNIPISINYRT | 53% | – | –
25 | K1 (designed binder, Del 1-8 10Fn3 clone; tag not included) EVVAATPTSLLISWRHPHFPTRYYRITYGETGGNSPVQEFTVPLQPPTATISGLKPGVDYTITGYAVTMGLYGHELLTPISINYRT | 48% | – | 0.55 nM
26 | 4′B6 PR4 (designed binder, tag left out) EVVAATPTSLLISWRHPHFPTRYYRITYGETGGNSPVQEFTVPLQPPTATISGLKPGVDYTITGYAVTLAQNDHELITPISINYRT | – | 11% | –
27 | E13 (designed binder, Del 1-8 10Fn3 clone; Flag tag of the radioactive-assay form not included) EVVAATPTSLLISWRHPHFPTRYYRITYGETGGNSPVQEFTVPLQPPTATISGLKPGVDYTITGYAVTLEQNGRELMTPISINYRT | 38% | – | –
28 | K7 (designed binder, Del 1-8 10Fn3 clone; Flag tag of the assay form not included) EVVAATPTSLLISWRHPHFPTRYYRITYGETGGNSPVQEFTVPLQPPTATISGLKPGVDYTITGYAVTSGHNDHMLMIPISINYRT | 40% | – | 2.2 nM
29 | K2 (designed binder, Del 1-8 10Fn3 clone; Flag tag of the assay form not included) EVVAATPTSLLISWRHPHFPTRYYRITYGETGGNSPVQEFTVPLQPPTATISGLKPGVDYTITGYAVTDGENGQFLLVPISINYRT | 48% | – | 1.19 nM
30 | K8 (designed binder, Del 1-8 10Fn3 clone; Flag tag of the assay form not included) EVVAATPTSLLISWRHPHFPTRYYRITYGETGGNSPVQEFTVPLQPPTATISGLKPGVDYTITGYAVTVTHNGHPLMTPISINYRT | 18% | – | 3.3 nM
31 | E22 (designed binder, Del 1-8 10Fn3 clone; Flag tag of the radioactive-assay form not included) EVVAATPTSLLISWRHPHFPTRYYRITYGETGGNSPVQEFTVPLQPPTATISGLKPGVDYTITGYAVTLGRNDRELLTPISINYRT | 45% | – | –
